From publication PMC8908268 (The Journal of Biological Chemistry, 2022)
Where “and” joins values, the source holds several entries; their conditions need not be identical. Identical values can stand only once.

T1: Halo-tagged full-length Gads (Grb2-related adapter protein downstream of Shc), 1–322aa (UniProt O89100 1-322)
T1 sequence: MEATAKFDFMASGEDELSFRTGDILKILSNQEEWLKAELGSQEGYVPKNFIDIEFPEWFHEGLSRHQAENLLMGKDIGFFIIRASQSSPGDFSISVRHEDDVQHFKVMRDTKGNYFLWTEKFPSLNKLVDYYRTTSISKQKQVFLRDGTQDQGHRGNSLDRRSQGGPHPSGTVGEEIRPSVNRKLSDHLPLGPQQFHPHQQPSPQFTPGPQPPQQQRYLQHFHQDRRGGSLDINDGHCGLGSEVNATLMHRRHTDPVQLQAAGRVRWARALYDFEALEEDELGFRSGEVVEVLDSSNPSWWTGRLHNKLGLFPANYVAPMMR


Assays:
[1] = biological target: His-tagged, doubly phosphorylated LAT (48–233aa; pY132 and pY171) (UniProt O43561); experiment: co-sedimentation
[2] = biological target: T1, Halo-tagged full-length Gads …; experiment: co-sedimentation

Binder | % of protein binding to LUV [1] | binding result [2]
Halo-tagged full-length Gads (Grb2-related adapter protein downstream of Shc), 1–322aa (natural protein) MEATAKFDFMASGEDELSFRTGDILKILSNQEEWLKAELGSQEGYVPKNFIDIEFPEWFHEGLSRHQAENLLMGKDIGFFIIRASQSSPGDFSISVRHEDDVQHFKVMRDTKGNYFLWTEKFPSLNKLVDYYRTTSISKQKQVFLRDGTQDQGHRGNSLDRRSQGGPHPSGTVGEEIRPSVNRKLSDHLPLGPQQFHPHQQPSPQFTPGPQPPQQQRYLQHFHQDRRGGSLDINDGHCGLGSEVNATLMHRRHTDPVQLQAAGRVRWARALYDFEALEEDELGFRSGEVVEVLDSSNPSWWTGRLHNKLGLFPANYVAPMMR | 26.3% and 31.4% and 42.8% | –
SLP-76 tyrosine- and proline-rich domains (103–258aa with Y113F and Y173F mutations) (domain or fragment) GGWSSFEEDDFESPNDDQDGEDDGDYESPNEEEEAPVEDDADYEPPPSNDEEALQNSILPAKPFPNSNSMFIDRPPSGKTPQQPPVPPQRPMAALPPPPAGRNHSPLPPPQTNHEEPSRSRNHKTAKLPAPSIDRSTKPPLDRSLAPFDREPFTLG | – | binds
